We go through two proteins from PMC3485694 (Structure (London, England : 1993), 2012).

This data set concerns the molecule itself. Briefly: crystal structure.

B1: human HisRS Δ1–53_507–509 (domain or fragment, UniProt P12081 54-506, looked up)
chain: FVLKTPKGTRDYSPRQMAVREKVFDVIIRCFKRHGAEVIDTPVFELKETLMGKYGEDSKLIYDLKDQGGELLSLRYDLTVPFARYLAMNKLTNIKRYHIAKVYRRDNPAMTRGRYREFYQCDFDIAGNFDPMIPDAECLKIMCEILSSLQIGDFLVKVNDRRILDGMFAICGVSDSKFRTICSSVDKLDKVSWEEVKNEMVGEKGLAPEVADRIGDYVQQHGGVSLVEQLLQDPKLSQNKQALEGLGDLKLLFEYLTLFGIDDKISFDLSLARGLDYYTGVIYEAVLLQTPAQAGEEPLGVGSVAAGGRYDGLVGMFDPKGRKVPCVGLSIGVERIFSIVEQRLEALEEKIRTTETQVLVASAQKKLLEERLKLVSELWDAGIKAELLYKKNPKLLNQLQYCEEAGIPLVAIIGEQELKDGVIKLRSVTSREEVDVRREDLVEEIKRRTGQPL
As a reminder, the stoichiometry N is a count of units in the complex or per binding partner. As to B1, the “stoichiometry N” value stood at 2.

B2: human HisRS Δ507–509 (domain or fragment, UniProt P12081 1-506, looked up)
chain: MAERAALEELVKLQGERVRGLKQQKASAELIEEEVAKLLKLKAQLGPDESKQKFVLKTPKGTRDYSPRQMAVREKVFDVIIRCFKRHGAEVIDTPVFELKETLMGKYGEDSKLIYDLKDQGGELLSLRYDLTVPFARYLAMNKLTNIKRYHIAKVYRRDNPAMTRGRYREFYQCDFDIAGNFDPMIPDAECLKIMCEILSSLQIGDFLVKVNDRRILDGMFAICGVSDSKFRTICSSVDKLDKVSWEEVKNEMVGEKGLAPEVADRIGDYVQQHGGVSLVEQLLQDPKLSQNKQALEGLGDLKLLFEYLTLFGIDDKISFDLSLARGLDYYTGVIYEAVLLQTPAQAGEEPLGVGSVAAGGRYDGLVGMFDPKGRKVPCVGLSIGVERIFSIVEQRLEALEEKIRTTETQVLVASAQKKLLEERLKLVSELWDAGIKAELLYKKNPKLLNQLQYCEEAGIPLVAIIGEQELKDGVIKLRSVTSREEVDVRREDLVEEIKRRTGQPL
For the protein B2, the binding result is “binds”.
